Measured values reported in the DeepSol protein solubility set.

test: soluble on expression in E. coli; label from the status in PepcDB or PDB records

Sequence	soluble on expression in E. coli
MPAKTGQEYMERLKRAKSSVYIHGEKVEDVTVHPAFRNVVRSMAALYDRQYEKPEKMLYRSPTTGQLVGMTFIQPTTIDELIARREATQEWARMSAGMMGRSPDYLNAEVMAMGVANDLFAEDDPMFAENAKNYYEYARENDISLTHTLIHPQMNRAKALHEQNDADVPLHLVERRKDGIIVSGIRLLATQGGITDEILVFPSTVKKSTAGEDPYALAFAIPNNTPGVKFICREAFDYGRSSWDHPLASRFEEGDAIVSFENVFVPWERVFVCGNSSICNRTFRETNAVIHMSHQVVAKNIVKTEFLLGVTLCLIEAIGIGEFQHVKDKGAEIMLVLETMKSHLYRAEHNAKRDRWGTMTPDFAALDAARNWYPRIYPRLSEIIRILGASGLMAIPTEADFHNEEIGEIVSRAMQGATVDGYERVQLFRLAWDLTMSAFGARQTHYEYYFFGDPVRMGMAYFDGYEKEPYKQFVREFLRGAKSVFIPSDNKH	not soluble
MKQSTIALALLPLLFTPVTKADIELTQSPSSLAVSAGEKVTMSCKSSQSLLNSGNQKNYLAWYQQKPGLPPKLLIYGASTRESGVPDRFTGSGSGTDFTLTISSVQAEDLAVYYCQNDHSYPLTFGAGTKLEIKRTVAAPSVFIFPPSDEQLKSGTASVVCLLNNFYPREAKVQWKVDNALQSGNSQESVTEQDSKDSTYSLSSTLTLSKADYEKHKVYACEVTHQGLSSPVTKSFNRGEC	soluble
MSLAEPLTVSPELTANYAYFFDLDGTLAEIKPHPDQVVVPHKILQLLDRLAAHNAGALALISGRSMTELDALAKPFRFPLAGVHGAERRDISGKTHIVRLPEAVVREVEALLRSTLAALPGTELETKGMAFALHYRQAPEHEAALLALAQHVTQHWPQLALQPGKCVVEIKPKGTNKGEAIAAFMQEAPFTGRIPVFVGDDLTDEAGFGVVNHAGGISVKVGVGATQAAWRLESVPDVWRWLEQINYPQQEQQVMNNRRDGYESFSRSIEGHHHHHH	soluble
MASISSLGVGSNLPLDQLLTDLTKNEKGRLTPITKQQSANSAKLTAYGTLKSALEKFQTANTALNKADLFKSTVASSTTEDLKVSTTAGAAAGTYKINVTQLAAAQSLATKTTFATTKEQLGDTSVTSRTIKIEQPGRKEPLEIKLDKGDTSMEAIRDAINDADSGIAASIVKVKENEFQLVLTANSGTDNTMKITVEGDTKLNDLLAYDSTTNTGNMQELVKAENAKLNVNGIDIERQSNTVTDAPQGITLTLTKKVTDATVTVTKDDTKAKEAIKSWVDAYNSLVDTFSSLTKYTAVEPGEEASDKNGALLGDSVVRTIQTGIRAQFANSGSNSAFKTMAEIGITQDGTSGKLKIDDDKLTKVLKDNTAAARELLVGDGKETGITTKIATEVKSYLADDGIIDNAQDNVNATLKSLTKQYLSVSNSIDETVARYKAQFTQLDTMMSKLNNTSSYLTQQFTAMNKS	not soluble
KLKIVEVPQEELFRDDDLLKSVYGILVTAHYRNSPDDLMLLGDMAFQKVIVGYSSENPVAVCQVVYEGGLTDKQIWDISNGLKNEGHLIPHRLIKYMRALDFGKLKGWRIMRIAVSPENQGKGIGSRVIEEVIKMAKGVDWIGSSFVADYSVLRFWIKNGFLPVYLSSIKNEE	not soluble
MNMPKRYSEMTPHELREEIGALKEQAVKAEQLGIVNEFDVLMRKMAMARAYMTDINKFHIGETYELVEEPGVLFKITYFNGVFAWGYKQNDNEEIGIPISLLQEK	not soluble
MRSQDKYERFIQLLAHEFFHLWNVKRIRPQALEVFNYDQENYTPSLWFCEGTTSYYDLLIPLRAGIYDAKTYLNYWSKEISRLITTPGRKVQPLSESSFDAWIKLYRPDTNTGNSQVSYYLKGELEHHHHHH	not soluble
MAHHHHHHMIRWAAVLRCGAHGVREDRQALARHHLNLLDKRHWELTTPSRALPVVEVLIRSGVLMDRLEKSSTKPLASLTPSMTKKERSLVQKLSHMLHQASPPTACRVSRNAVEEDEAVRAAYSAACATGACTIDVVVDLAFVRHLRFPLSALMLLELVESRCVKVCWTRGKPCLSKELLDSICDLFAEHEQSLDFRATWWLLSLLGGGTQVRDWPITLSAGKRLFRLCVRRIHYLLPDLPLEDLLLAYVQLARIEGYEKPFIVLGEMERLLLATSSDEYTGVSTNVLLRFMTMPFAVRHADLNLRLCAGWSAASRITEFTQEECLAAFAIVAALHEGCVAESAAAVAALRDWEMLHDALFAQVFCVAHEMTAADCFRILDQSELINVSGWGITVPQMLLEKLKKRILSECTHYAMDECRVPETAELLLRVALGLQALMQRYTVLPSSAADEHAVAECILLLERCITVLPPHG	not soluble
MDVRSAPSNHATAVPTAQPSAPSIKSTLSKLFRAQCSDPVPLSSSSSTERIAPPRVTANYSAVVDISKTASHSKTNADTAEKNSFSWLKNKLSTVSENQQKKQAIQNFIAQVSQQYNVEEDVAKLAVAASGAYRQLRFEETQQQRVHACLQDTEALTAMIDLATRKPLTYKMVMGLDSSDCSFDPIARISDHDILTEAEQCQVVRSAFASADKVCVVTSYGIKPLGAPKSDALSPTIASVLQGFASKQHDKDFTGVFFYQKSDAIQNYYTEDKRTNISIKENDWAKAVTLFNAAVERGEIEGPKEGLK	not soluble
MFQLSVQDIHPGEKAGDKEEAIRQVAAALVQAGNVAEGYVNGMLAREQQTSTFLGNGIAIPHGTTDTRDQVLKTGVQVFQFPEGVTWGDGQVAYVAIGIAASSDEHLGLLRQLTHVLSDDSVAEQLKSATTAEELRALLMGEKQSEQLKLDNEMLTLDIVASDLLTLQALNAARLKEAGAVDATFVTKAINEQPLNLGQGIWLSDSAEGNLRSAIAVSRAANAFDVDGETAAMLVSVAMNDDQPIAVLKRLADLLLDNKADRLLKADAATLLALLTSDDAPTDDVLSAEFVVRNEHGLHARPGTMLVNTIKQFNSDITVTNLDGTGKPANGRSLMKVVALGVKKGHRLRFTAQGADAEQALKAIGDAIAAGLGEGA	soluble
GPGSMAMRDVIGDPDLLLRKTPANPKYEHVKPVVETGMTAELARFMKNTGAALYRVSGEPFMRIRTRLIGDFVQKQQSQSGEIKDGGFAHPMDEYRAPDTQLPKEYLILDVRSEEEYAACHIKGALHYPKRRMVHAINPLLPEMFNFKNKENKLIVLYDLEEEMTIAQGIGQNVFEKGIDNLAVMTGGLREFVQDYADCIVGESPVPIVPRDTRLLKRAEAVSAARSETQRSAFSHKPKSLSNSLAKPRPR	soluble
MTEYNNNFDRELGWDDEITQDSVGFVQLVPGDYQFTVTNMERARHTPNPKSPGKLPACNKAVVTIQIETSEGIAQLTHNLFLHTTTEGMLSAFFGAIGQKKHGEPLKMNWNTVIGAKGVARINKRKGTGDYADREYDNIKSMIYADEVDWTKVLNKDVAQPQQMTHQQSAQPTYQGQQAQGTNFAQQPATQSYQQGQMQTPQQPQGGWGGF	not soluble
MDFEQLKQDVIAYSKTIGIDKIGFASASPFEELKQRLIQQQQLNYQSGFEEPDIEKRTNPQLLLPGAKSIIAIALAYPSKLKNAPLSKRGERRGIFCRASWGQDYHLVLRDRLQKLEAYLIEKLPDIEVKSMVDTGELSDRAVSERAGIGWSGKNCSIITPEFGSYVYLGEMITNVPFPPDKPIEDQCGGCTKCIDICPTGALIQGGQLDSKKCIAFLTQTKGFLPEEYRDKIGNRIYGCDTCQTVCPKNKGMDFHNHPEMEPDPELVKPLLTPLLTISNRDFKEKYGIMSGSWRGKKPLQRNAILALAHFKEASAIPDLIGVMKDDPRPVLRGTAAWALGKIGGDGVGEAIEKAMEREKDEEVLHEMNRGLELLAQKKE	not soluble
STKLTGYVWDGCAASGMKLSSVAIMARLADFSNDEGVCWPSIETIARQIGAGMSTVRTAIARLEAEGWLTRKARRQGDGSSPHCAVVDEYHEHATDALYTTMLTGMGARRQPLMWAITTAGYNIEGPCYDKRREVIEMLNGSVPNDELFGIIYTVDEGDDWTDPQVLEKANPNIGVSVYREFLLSQQQRAKNNARLANVFKTKHLNIWASARSAYFNLVSWQSCEDKSLTLEQFEGQPCILAFDLARKLDMNSMARLYTREIDGKTHYYSVAPRFWVPYDTVYSVEKNEDRRTAERFQKWVEMGVLTVTDGAEVDYRYILEEAKAANKISPVSESPIDPFGATGLSHDLADEDLNPVTIIQNYTNMSDPMKELEAAIESGRFHHDGNPIMTWCIGNVVGKTIPGNDDVVKPVKEQAENKIDGAVALIMAVGRAMLYEKEDTLSDHIESYGIRSL	soluble
